Tests used:
Details in all cases: both partners purified
[1] = molecular target: T1, endogenous human TCP-1 ring complex (TRiC), CCT5 tagged with 3×FLAG/Spytag (human, UniProt P17987;P78371;P49368;P50991;P48643;P40227;Q99832;P50990); assay: cryo-EM structure; purified TRiC (1.5 mg/ml) premixed with Nb18 at 1:1 molar ratio, 1 mM ATP, 5 mM MgCl2, AlFx; closed and open states
T1 construct: CCT1 subunit of human TRiC; CCT2 subunit of human TRiC; CCT3 subunit of human TRiC; CCT4 subunit of human TRiC; CCT5 subunit of human TRiC, tag knocked into the genomic locus; CCT6 subunit of human TRiC; predominantly the CCT6A isoform by MS/MS and side-chain modelling; CCT7 subunit of human TRiC; CCT8 subunit of human TRiC; Hexadecamer of two back-to-back rings of eight paralogous subunits; also …

[2] = molecular target: T2, recombinant human CCT5 homo-oligomer (hexadecameric form, CCT5_(16)) (Homo sapiens (Human)., UniProt P48643, biotin (for BLI)); assay: BLI; Octet RED384, 25 °C, 20 mM HEPES pH 7.5, 150 mM NaCl, 0.1% BSA; biotinylated CCT5 on streptavidin sensors; Nb18 40 μM to 39 nM; steady-state fit
T2 construct: it mentions that recombinant CCT5 was earlier made with a C-terminal His-tag; also called recombinant CCT5; overexpressed CCT5; source: E. coli, recombinant; copies: 16
T2 sequence (P48643 whole entry): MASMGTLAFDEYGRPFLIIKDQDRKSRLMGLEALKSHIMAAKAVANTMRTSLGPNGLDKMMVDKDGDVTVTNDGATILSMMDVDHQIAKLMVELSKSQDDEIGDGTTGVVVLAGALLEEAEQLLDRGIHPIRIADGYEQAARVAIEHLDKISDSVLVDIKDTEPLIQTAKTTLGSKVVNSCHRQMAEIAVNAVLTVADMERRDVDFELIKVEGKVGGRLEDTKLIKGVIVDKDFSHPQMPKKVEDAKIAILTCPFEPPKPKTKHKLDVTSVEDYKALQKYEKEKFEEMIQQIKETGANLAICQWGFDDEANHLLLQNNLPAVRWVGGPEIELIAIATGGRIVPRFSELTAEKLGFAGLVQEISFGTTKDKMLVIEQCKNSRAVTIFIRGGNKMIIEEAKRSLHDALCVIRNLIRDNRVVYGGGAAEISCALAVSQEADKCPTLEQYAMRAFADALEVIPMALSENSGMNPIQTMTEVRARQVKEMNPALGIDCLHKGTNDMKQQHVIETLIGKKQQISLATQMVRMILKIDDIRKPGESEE

[3] = molecular target: T3, recombinant CCT4 (Homo sapiens, UniProt P50991); assay: as above
T3 construct: CCT4 subunit of TRiC, expressed recombinantly; Construct not described
T3 sequence (P50991 whole entry): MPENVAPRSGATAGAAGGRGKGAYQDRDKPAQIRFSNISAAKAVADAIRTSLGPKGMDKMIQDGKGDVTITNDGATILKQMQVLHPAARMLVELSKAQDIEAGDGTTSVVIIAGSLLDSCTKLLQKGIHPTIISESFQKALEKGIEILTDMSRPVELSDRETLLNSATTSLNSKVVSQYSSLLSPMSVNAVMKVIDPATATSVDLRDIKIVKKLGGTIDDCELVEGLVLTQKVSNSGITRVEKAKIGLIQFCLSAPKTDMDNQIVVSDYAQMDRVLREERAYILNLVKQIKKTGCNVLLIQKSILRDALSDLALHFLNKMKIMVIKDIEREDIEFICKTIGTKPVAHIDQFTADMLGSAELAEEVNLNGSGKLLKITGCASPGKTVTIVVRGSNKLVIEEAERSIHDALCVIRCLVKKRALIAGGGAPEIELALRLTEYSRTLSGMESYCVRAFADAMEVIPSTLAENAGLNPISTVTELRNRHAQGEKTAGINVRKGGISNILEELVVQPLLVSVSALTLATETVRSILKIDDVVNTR

stoichiometry N [1]: 2
Kd [2]: 86 nM
B1: nanobody Nb18 (VHH)
VHH: QVQLVESGGGLVQAGGSLRLSCGASGTFFRINDMGWYRQASGKQRELVASITRGGTTDYADSVKGRFTISRDNAKNTVYLQMNSLKPEDTAVYYCKANRNWGREWDDYWGQGTQVTVSS
notes: Nb18 is modelled in the TRiC–Nb18 structure solved here (PDB 7NVL); llama nanobody raised against CCT5 homo-hexadecamer, in vector pMESy4; Starting model was a homology model on PDB 6QX4 chain C (another nanobody); also called CA14679; source: E. coli, purified (Ni-NTA, SEC)
binding result [3]: no binding (tested: Nb18 40 μM to 39 nM (methods))
